The values below come from paper PMC3227520 (Biochemistry, 2011).

Like-named read-outs stand apart in the source and are kept apart here. Primed or numbered codes have the meaning given here. *: point of attachment. FITC = O=C1OC2(c3ccc(O)cc3Oc3cc(O)ccc32)c2ccc(NC(=S)*)cc21; FITC′ = fluorescein isothiocyanate label; Ahx = NCCCCCC(=O)O

The term Kd denotes a measure of binding affinity in units of concentration. A high value points to lower affinity. One may read the stoichiometry N as the number of molecules, sites or subunits per partner or assembly.

The labels stand for the following.
B1: FITC-MIIA^1904–1927 (nonmuscle myosin-IIA 24mer peptide) (peptide)
peptide: {FITC-Ahx}-TETADAMNREVSSLKNKLRRGDLP-NH2
SMILES: CSCC[C@H](NC(=O)[C@H](C)NC(=O)[C@H](CC(=O)O)NC(=O)[C@H](C)NC(=O)[C@@H](NC(=O)[C@H](CCC(=O)O)NC(=O)[C@@H](NC(=O)CCCCCNC(=S)Nc1ccc2c(c1)C(=O)OC21c2ccc(O)cc2Oc2cc(O)ccc21)[C@@H](C)O)[C@@H](C)O)C(=O)N[C@@H](CC(N)=O)C(=O)N[C@@H](CCCNC(=N)N)C(=O)N[C@@H](CCC(=O)O)C(=O)N[C@H](C(=O)N[C@@H](CO)C(=O)N[C@@H](CO)C(=O)N[C@@H](CC(C)C)C(=O)N[C@@H](CCCCN)C(=O)N[C@@H](CC(N)=O)C(=O)N[C@@H](CCCCN)C(=O)N[C@@H](CC(C)C)C(=O)N[C@@H](CCCNC(=N)N)C(=O)N[C@@H](CCCNC(=N)N)C(=O)NCC(=O)N[C@@H](CC(=O)O)C(=O)N[C@@H](CC(C)C)C(=O)N1CCC[C@H]1C(N)=O)C(C)C
B2: wild-type S100A4 (native noncovalent S100A4 dimer) (natural protein)
chain: not shown
B3: MIIA^1851–1960 (nonmuscle myosin-IIA heavy chain fragment) (domain or fragment, UniProt P35579 1851-1960, looked up)
chain: VDDERRNAEQYKDQADKASTRLKQLKRQLEEAEEEAQRANASRRKLQRELEDATETADAMNREVSSLKNKLRRGDLPFVVPRRMARKGAGDGSDEEVDGKADGAEAKPAE

In series [1] the target is B2. The experiment in a line: fluorescence polarisation.
Series [2] concerns the target B1. The experiment in a line: fluorescence polarisation. (Fluorescence polarisation rises when a labelled molecule tumbles more slowly, as on binding a larger partner.)
Series [3] concerns the molecule itself. The experiment in a line: cross-linking.
Series [4] concerns the target B2. The experiment in a line: fluorescence polarisation. The source holds these as a separate data set.

In the case of B1, the Kd in series [1] is 260 ± 30 nM.
On to B2, for which the “stoichiometry N” value in series [2] was 1 S100A4 dimer per peptide.
As for B3, the “stoichiometry N” value in series [3] was 2.
Take {FITC′-Ahx}-DAMNREVSSLKNKLRR-NH2 [FITC-MIIA^1908–1923 (nonmuscle myosin-IIA peptide, minimal S100A4 binding site)]: the Kd in series [4] was found to be 1800 ± 200 nM.
